Patent US20060002951

Columns and labels:
[1] = target: wild-type HIV-1 Gag expressed from the hGag plasmid
[2] = target: Gag of HIV-1 BH10 expressed from BH10.P-.Vif- or BH10.FS-.Vif- proviral DNA, P03347
[3] = target: mutant Gag of ZWt-p6.Vif-, in which the nucleocapsid sequence has been replaced with a yeast leucine zipper domain
[4] = target: HIV-1 Vif (virion infectivity factor)

B1: HA-tagged APOBEC3G deletion mutant Δ309-384 (protein)
chain: MKPHFRNTVERMYRDTFSYNFYNRPILSRRNTVWLCYEVKTKGPSRPPLDAKIFRGQVYSELKYHPEMRFFHWFSKWRKLHRDQEYEVTWYISWSPCTKCTRDMATFLAEDPKVTLTIFVARLYYFWDPDYQEALRSLCQKRDGPRATMKIMNYDEFQHCWSKFVYSQRELFEPWNNLPKYYILLHIMLGEILRHSMDPPTFTFNFNNEPWVRGRHETYLCYEVERMHNDTWVLLNQRRGFLCNQAPHKHGFLEGRHAELCFLDVIPFWKLDLDQDYRVTCFTSWSPCFSCAQEMAKFISKNKHVSLC
- viral content relative to wild type APOBEC3G (Gag VLPs, Western blot) [1]: the viral content of these N-terminal fragments is >60% of wild type APOBEC3G

B2: wild-type human APOBEC3G with a fused HA tag at the C-terminus (protein)
chain: MKPHFRNTVERMYRDTFSYNFYNRPILSRRNTVWLCYEVKTKGPSRPPLDAKIFRGQVYSELKYHPEMRFFHWFSKWRKLHRDQEYEVTWYISWSPCTKCTRDMATFLAEDPKVTLTIFVARLYYFWDPDYQEALRSLCQKRDGPRATMKIMNYDEFQHCWSKFVYSQRELFEPWNNLPKYYILLHIMLGEILRHSMDPPTFTFNFNNEPWVRGRHETYLCYEVERMHNDTWVLLNQRRGFLCNQAPHKHGFLEGRHAELCFLDVIPFWKLDLDQDYRVTCFTSWSPCFSCAQEMAKFISKNKHVSLCIFTARIYDDQGRCQEGLRTLAEAGAKISIMTYSEFKHCWDTFVDHQGCPFQPWDGLDEHSQDLSGRLRAILQNQEN
- ability of the viruses to package APOBEC3G (Western blots of viral lysates) [2]: BH10.FS-.Vif- can package APOBEC3G as efficiently as BH10.P-
- ability of the viruses to package APOBEC3G (Western blots of viral lysates) [3]: the ability of ZWt-p6.Vif- to incorporate APOBEC3G is reduced 90% compared with BH10.FS-.Vif-
- distribution of APOBEC3G between cytoplasm and membrane (sucrose floatation assay) [3]: the majority of APOBEC3G remains in the cytoplasm even though most Gag is found at membrane
- incorporation of APOBEC3G into Gag VLPs (Western blot of VLP lysates) [1]: Gag alone is sufficient among the viral proteins for facilitating APOBEC3G incorporation
- share of APOBEC3G in the membrane-bound fraction (sucrose floatation assay) [1]: in the presence of Gag (FIG. 5B), >90% of APOBEC3G is localized in the membrane-bound protein

B3: HA-tagged APOBEC3G deletion mutant Δ1-156 (protein)
chain: MFQHCWSKFVYSQRELFEPWNNLPKYYILLHIMLGEILRHSMDPPTFTFNFNNEPWVRGRHETYLCYEVERMHNDTWVLLNQRRGFLCNQAPHKHGFLEGRHAELCFLDVIPFWKLDLDQDYRVTCFTSWSPCFSCAQEMAKFISKNKHVSLCIFTARIYDDQGRCQEGLRTLAEAGAKISIMTYSEFKHCWDTFVDHQGCPFQPWDGLDEHSQDLSGRLRAILQNQEN
- reduction in the ability to be degraded by Vif (ratio of expression with and without Vif, Western blot) [4]: the deletion of the N-terminal 156 or C-terminal 157-384 amino acids results in 80% and 90% reduction in the ability of the resulting fragments to be degraded by Vif, respectively
- incorporation into Gag VLPs (APOBEC3G:Gag ratio, Western blot) [1]: the deletion of the N-terminal 156 amino acids abolishes its incorporation into viruses

B4: HA-tagged APOBEC3G deletion mutant Δ1-104 (protein)
chain: MATFLAEDPKVTLTIFVARLYYFWDPDYQEALRSLCQKRDGPRATMKIMNYDEFQHCWSKFVYSQRELFEPWNNLPKYYILLHIMLGEILRHSMDPPTFTFNFNNEPWVRGRHETYLCYEVERMHNDTWVLLNQRRGFLCNQAPHKHGFLEGRHAELCFLDVIPFWKLDLDQDYRVTCFTSWSPCFSCAQEMAKFISKNKHVSLCIFTARIYDDQGRCQEGLRTLAEAGAKISIMTYSEFKHCWDTFVDHQGCPFQPWDGLDEHSQDLSGRLRAILQNQEN
- incorporation into Gag VLPs (APOBEC3G:Gag ratio, Western blot) [1]: deletion of the N-terminal 104 amino acids or the C-terminal 157-384 amino acids (See SEQ ID NO: 21) does not affect the ability of APOBEC3G to be packaged into Gag VLPs

B5: HA-tagged APOBEC3G deletion mutant Δ246-384 (protein)
chain: MKPHFRNTVERMYRDTFSYNFYNRPILSRRNTVWLCYEVKTKGPSRPPLDAKIFRGQVYSELKYHPEMRFFHWFSKWRKLHRDQEYEVTWYISWSPCTKCTRDMATFLAEDPKVTLTIFVARLYYFWDPDYQEALRSLCQKRDGPRATMKIMNYDEFQHCWSKFVYSQRELFEPWNNLPKYYILLHIMLGEILRHSMDPPTFTFNFNNEPWVRGRHETYLCYEVERMHNDTWVLLNQRRGFLCNQ
- viral content relative to wild type APOBEC3G (Gag VLPs, Western blot) [1]: the viral content of these N-terminal fragments is >60% of wild type APOBEC3G

B6: HA-tagged APOBEC3G deletion mutant Δ157-384 (protein)
chain: MKPHFRNTVERMYRDTFSYNFYNRPILSRRNTVWLCYEVKTKGPSRPPLDAKIFRGQVYSELKYHPEMRFFHWFSKWRKLHRDQEYEVTWYISWSPCTKCTRDMATFLAEDPKVTLTIFVARLYYFWDPDYQEALRSLCQKRDGPRATMKIMNYDE
- cytoplasmic expression of full-length hA3G in the presence of Vif (Western blot with anti-HA) [4]: an increase in the cytoplasmic expression of full-length hA3G was detected with an increase in expression of hA3G 1-156 or hA3G 157-384, respectively
- incorporation into Gag VLPs (APOBEC3G:Gag ratio, Western blot) [1]: deletion of the N-terminal 104 amino acids or the C-terminal 157-384 amino acids (See SEQ ID NO: 21) does not affect the ability of APOBEC3G to be packaged into Gag VLPs
- viral content relative to wild type APOBEC3G (Gag VLPs, Western blot) [1]: the viral content of these N-terminal fragments is >60% of wild type APOBEC3G
